Results from paper PMC7349057.

Key:
[1] = immunocytochemistry of internalised VEGFR2, BSA vs VEGF; settings: glycan lost; control: ∆21-121 EMCN
[2] = cell surface biotinylation, VEGFR2 western blot, hEMCN knockdown HRECs; settings: glycan lost; control: ∆21-121 EMCN

B1: mouse EMCN (mEMCN, endomucin): N-Mut (protein)
parent chain: MRLLQATVLFFLLSNSLCHSEDGKDVQNDSIPTPAETSTTKASVTIPGIVSVTNPNKPADGTPPEGTTKSDVSQTSLVTTINSLTTPKHEVGTTTEGPLRNESSTMKITVPNTPTSNANSTLPGSQNKTENQSSIRTTEISVTTQLLDALPKITATSSASLTTAHTMSLLQDTEDRKIATTPSTTPSYSSIILPVVIALVVITLLVFTLVGLYRICWKRDPGTPENGNDQPQSDKESVKLLTVKTISHESGEHSAQGKTKN
other: rescue of VEGF-induced VEGFR2 internalisation, other: VEGFR2-positive pixels per cell [1]: abolishes
other: rescue of VEGF-induced VEGFR2 internalisation [2]: abolishes
